The values that follow are results of earlier work, collected in paper PMC6244792.

The target of data set [1] is cpSRP54 M domain (Arabidopsis thaliana) (UniProt P37107). Description: SPR.
Data set [2] has as its target LHCP L18 peptide (Arabidopsis thaliana). Description: ITC. On the technique in general: ITC needs no label: the signal is the heat of the interaction.
For data set [3], the target named is RRKRp10 (cpSRP54 C-terminal peptide) (Arabidopsis thaliana) (UniProt P37107).
Data set [4] concerns the target cpSRP54 (Arabidopsis thaliana) (UniProt P37107). Description: MST.
Data set [5] concerns the target LHCP L11 peptide (Arabidopsis thaliana). Put plainly: FA.
For data set [6], the target named is Alb3 C-terminus (Arabidopsis thaliana) (UniProt Q8LBP4). Put plainly: FA.
Chain of Alb3 C-terminus (Arabidopsis thaliana) (Q8LBP4 339-462): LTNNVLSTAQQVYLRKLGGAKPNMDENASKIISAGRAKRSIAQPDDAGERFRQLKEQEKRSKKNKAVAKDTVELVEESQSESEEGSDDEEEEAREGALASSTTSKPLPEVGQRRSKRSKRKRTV
Data set [7] concerns the target LHCP L18 peptide (Arabidopsis thaliana). Put plainly: ITC. The source holds these as a separate data set.
For data set [8], the target named is cpSRP54 (Arabidopsis thaliana) (UniProt P37107). Put plainly: FCS.
Chain of cpSRP54 (Arabidopsis thaliana) (P37107 76-564): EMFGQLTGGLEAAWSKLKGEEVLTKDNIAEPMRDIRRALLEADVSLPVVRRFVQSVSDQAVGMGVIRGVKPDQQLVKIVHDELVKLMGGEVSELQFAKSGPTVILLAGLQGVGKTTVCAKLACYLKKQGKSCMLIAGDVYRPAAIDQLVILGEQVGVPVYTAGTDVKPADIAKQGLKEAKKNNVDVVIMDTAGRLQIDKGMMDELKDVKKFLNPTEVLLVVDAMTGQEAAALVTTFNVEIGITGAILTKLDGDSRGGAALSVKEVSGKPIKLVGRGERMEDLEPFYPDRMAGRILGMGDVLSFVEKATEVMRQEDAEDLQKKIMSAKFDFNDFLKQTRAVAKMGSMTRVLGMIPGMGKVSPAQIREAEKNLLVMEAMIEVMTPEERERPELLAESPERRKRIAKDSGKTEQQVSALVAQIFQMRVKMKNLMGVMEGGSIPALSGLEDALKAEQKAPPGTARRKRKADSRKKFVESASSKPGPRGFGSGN
In data set [9] the target is LHCP L11 peptide (Arabidopsis thaliana). Description: FA. The source holds these as a separate data set.
Data set [10] deals with cpSRP54 peptide RRKRp10 RRKRp10 (Arabidopsis thaliana) (UniProt P37107).
Chain of cpSRP54 peptide RRKRp10 RRKRp10 (Arabidopsis thaliana) (P37107 whole entry, looked up, tested part not stated): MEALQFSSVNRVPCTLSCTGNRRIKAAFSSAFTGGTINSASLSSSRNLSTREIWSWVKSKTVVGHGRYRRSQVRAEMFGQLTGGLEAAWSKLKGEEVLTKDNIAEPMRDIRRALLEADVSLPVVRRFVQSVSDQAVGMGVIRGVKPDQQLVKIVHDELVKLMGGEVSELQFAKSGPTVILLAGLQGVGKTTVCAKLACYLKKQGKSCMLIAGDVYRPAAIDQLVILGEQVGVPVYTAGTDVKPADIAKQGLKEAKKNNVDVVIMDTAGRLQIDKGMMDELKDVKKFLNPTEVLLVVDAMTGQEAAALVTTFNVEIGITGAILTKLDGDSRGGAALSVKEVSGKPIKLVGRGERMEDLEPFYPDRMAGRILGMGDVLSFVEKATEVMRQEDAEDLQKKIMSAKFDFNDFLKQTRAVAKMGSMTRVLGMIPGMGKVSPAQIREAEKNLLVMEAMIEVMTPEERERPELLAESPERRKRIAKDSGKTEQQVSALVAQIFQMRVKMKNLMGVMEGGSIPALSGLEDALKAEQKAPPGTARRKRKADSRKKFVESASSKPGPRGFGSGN
Data set [11] addresses cpFtsY (Arabidopsis thaliana) (UniProt O80842). Put plainly: FRET.
The target is the same in data set [12]. Description: FRET. The source holds these as a separate data set.
The target is the same in data set [13]. Put plainly: FRET. This is another data set of the same source.

Several values for one entry are separate records, joined by “and”; a condition that tells them apart may be missing. Equal values may be shown once. Read-outs that look alike come from different tables or passages of the source.

Chain of cpFtsY (Arabidopsis thaliana) (O80842 41-366): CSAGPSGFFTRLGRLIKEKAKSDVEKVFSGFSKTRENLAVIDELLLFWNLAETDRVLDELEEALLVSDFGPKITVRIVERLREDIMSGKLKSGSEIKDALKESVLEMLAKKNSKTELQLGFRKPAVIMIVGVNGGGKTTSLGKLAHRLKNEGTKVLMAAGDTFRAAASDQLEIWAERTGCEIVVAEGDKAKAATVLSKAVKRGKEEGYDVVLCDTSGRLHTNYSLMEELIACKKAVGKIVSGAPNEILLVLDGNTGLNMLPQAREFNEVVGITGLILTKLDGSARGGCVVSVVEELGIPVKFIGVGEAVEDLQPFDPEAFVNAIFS
Chain of cpSRP54 (P37107 76-564): as the sequence (P37107 76-564) above
Chain of cpSRP54 M domain (Arabidopsis thaliana) (P37107 371-564): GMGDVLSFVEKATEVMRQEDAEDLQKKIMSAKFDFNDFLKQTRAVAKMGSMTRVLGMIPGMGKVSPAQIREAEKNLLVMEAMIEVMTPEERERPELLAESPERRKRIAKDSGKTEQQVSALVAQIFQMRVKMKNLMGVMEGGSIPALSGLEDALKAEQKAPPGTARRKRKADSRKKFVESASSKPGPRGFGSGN
Chain of RRKRp10 (cpSRP54 C-terminal peptide) (Arabidopsis thaliana) (P37107 whole entry, looked up, tested part not stated): as the sequence (P37107 whole entry, looked up, tested part not stated) above
Chain of cpSRP54 NG domain (P37107 76-370): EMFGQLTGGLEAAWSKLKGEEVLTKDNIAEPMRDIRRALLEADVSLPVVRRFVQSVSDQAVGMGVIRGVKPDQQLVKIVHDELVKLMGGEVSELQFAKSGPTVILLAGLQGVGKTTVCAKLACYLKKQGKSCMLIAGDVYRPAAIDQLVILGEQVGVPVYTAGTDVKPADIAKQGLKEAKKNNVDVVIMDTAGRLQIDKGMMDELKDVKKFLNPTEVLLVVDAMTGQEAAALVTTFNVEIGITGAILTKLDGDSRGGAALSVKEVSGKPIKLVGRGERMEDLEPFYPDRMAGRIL

With cpSRP43 (from UniProt O22265), the Kd in data set [1] was 0.0025 µM; in [2], 0.107 µM; in [3], 0.39 µM; in data set [4], 0.05 µM; in data set [5] it was 0.011 µM; in data set [6], 18 µM and 12 µM and 15 µM. Also, the Kd is 1.17 µM and 0.322 µM in [7]; 0.095 µM in data set [8]; 0.022 µM in data set [9]; 0.39 µM in [10].

On to cpSRP54 (from UniProt P37107), for which the Kd in data set [11] was 2.34 µM; in [12], 0.13 µM; in [13], 0.77 µM.

With cpSRP54 NG domain (from UniProt P37107), the Kd in data set [11] was 12 µM.

A word on the Kd: it is the concentration at which binding is half-saturated.
